Experimental data published in PMC7244493, “Osteogenesis imperfecta mutations in plastin 3 lead to impaired calcium regulation of actin bundling” (Bone Research, 2020).

Tests used:
[1] = target: T1, F-actin (chicken skeletal muscle actin, polymerized) (chicken, UniProt P68139 1-377); test: co-sedimentation; high-speed co-sedimentation, 300 000 g, 25 °C, 30 min; plastin 5 µmol·L^-1, F-actin varied 1-50 µmol·L^-1; actin polymerized in 2 mmol·L^-1 MgCl2, 30 mmol·L^-1 KCl, 10 mmol·L^-1 HEPES pH 7.0; incubated overnight at 4 °C then 1 h at 25 °C; SDS-PAGE densitometry, fit to a binding isotherm; details: both partners purified
[2] = target: T1, F-actin (chicken skeletal muscle actin, …); test: cell-based or functional assay

Row | Binder | Kd [1] [µM] | F-actin bundling, low-speed (17 000 g) co-sedimentation, [PLS3]50%, Ca^2+ [2] [µmol/L] | F-actin bundling, low-speed (17 000 g) co-sedimentation, [PLS3]50%, EGTA [2] [µmol/L]
1 | plastin 3 (PLS3), wild type (natural protein, plastin 3 (PLS3, T-plastin), human; recombinant wild type, parent of the OI mutants; Modified pColdI vector with a TEV protease site after the 6xHis tag; also called T-plastin; WT PLS3; source: E. coli BL21-CodonPlus(DE3), purified (TALON cobalt resin)) MDEMATTQISKDELDELKEAFAKVDLNSNGFICDYELHELFKEANMPLPGYKVREIIQKLMLDGDRNKDGKISFDEFVYIFQEVKSSDIAKTFRKAINRKEGICALGGTSELSSEGTQHSYSEEEKYAFVNWINKALENDPDCRHVIPMNPNTDDLFKAVGDGIVLCKMINLSVPDTIDERAINKKKLTPFIIQENLNLALNSASAIGCHVVNIGAEDLRAGKPHLVLGLLWQIIKIGLFADIELSRNEALAALLRDGETLEELMKLSPEELLLRWANFHLENSGWQKINNFSADIKDSKAYFHLLNQIAPKGQKEGEPRIDINMSGFNETDDLKRAESMLQQADKLGCRQFVTPADVVSGNPKLNLAFVANLFNKYPALTKPENQDIDWTLLEGETREERTFRNWMNSLGVNPHVNHLYADLQDALVILQLYERIKVPVDWSKVNKPPYPKLGANMKKLENCNYAVELGKHPAKFSLVGIGGQDLNDGNQTLTLALVWQLMRRYTLNVLEDLGDGQKANDDIIVNWVNRTLSEAGKSTSIQSFKDKTISSSLAVVDLIDAIQPGCINYDLVKSGNLTEDDKHNNAKYAVSMARRIGARVYALPEDLVEVKPKMVMTVFACLMGRGMKRV | 7.41 | 2.97 | 0.49
2 | plastin 3 (PLS3) L478P (natural protein, plastin 3 (PLS3), human, osteogenesis imperfecta-linked missense mutation L478P in CH3 of ABD2; Patient mutation; also called bundling-deficient mutant; source: E. coli BL21-CodonPlus(DE3), purified (TALON cobalt resin)) MDEMATTQISKDELDELKEAFAKVDLNSNGFICDYELHELFKEANMPLPGYKVREIIQKLMLDGDRNKDGKISFDEFVYIFQEVKSSDIAKTFRKAINRKEGICALGGTSELSSEGTQHSYSEEEKYAFVNWINKALENDPDCRHVIPMNPNTDDLFKAVGDGIVLCKMINLSVPDTIDERAINKKKLTPFIIQENLNLALNSASAIGCHVVNIGAEDLRAGKPHLVLGLLWQIIKIGLFADIELSRNEALAALLRDGETLEELMKLSPEELLLRWANFHLENSGWQKINNFSADIKDSKAYFHLLNQIAPKGQKEGEPRIDINMSGFNETDDLKRAESMLQQADKLGCRQFVTPADVVSGNPKLNLAFVANLFNKYPALTKPENQDIDWTLLEGETREERTFRNWMNSLGVNPHVNHLYADLQDALVILQLYERIKVPVDWSKVNKPPYPKLGANMKKLENCNYAVELGKHPAKFSPVGIGGQDLNDGNQTLTLALVWQLMRRYTLNVLEDLGDGQKANDDIIVNWVNRTLSEAGKSTSIQSFKDKTISSSLAVVDLIDAIQPGCINYDLVKSGNLTEDDKHNNAKYAVSMARRIGARVYALPEDLVEVKPKMVMTVFACLMGRGMKRV | 2.16 | – | –
3 | plastin 3 (PLS3) A368D (natural protein, plastin 3 (PLS3), human, osteogenesis imperfecta-linked missense mutation A368D in CH2 of ABD1; Patient mutation; also called Ca2+-insensitive mutant; Ca2+-hyposensitive mutant; source: E. coli BL21-CodonPlus(DE3), purified (TALON cobalt resin)) MDEMATTQISKDELDELKEAFAKVDLNSNGFICDYELHELFKEANMPLPGYKVREIIQKLMLDGDRNKDGKISFDEFVYIFQEVKSSDIAKTFRKAINRKEGICALGGTSELSSEGTQHSYSEEEKYAFVNWINKALENDPDCRHVIPMNPNTDDLFKAVGDGIVLCKMINLSVPDTIDERAINKKKLTPFIIQENLNLALNSASAIGCHVVNIGAEDLRAGKPHLVLGLLWQIIKIGLFADIELSRNEALAALLRDGETLEELMKLSPEELLLRWANFHLENSGWQKINNFSADIKDSKAYFHLLNQIAPKGQKEGEPRIDINMSGFNETDDLKRAESMLQQADKLGCRQFVTPADVVSGNPKLNLDFVANLFNKYPALTKPENQDIDWTLLEGETREERTFRNWMNSLGVNPHVNHLYADLQDALVILQLYERIKVPVDWSKVNKPPYPKLGANMKKLENCNYAVELGKHPAKFSLVGIGGQDLNDGNQTLTLALVWQLMRRYTLNVLEDLGDGQKANDDIIVNWVNRTLSEAGKSTSIQSFKDKTISSSLAVVDLIDAIQPGCINYDLVKSGNLTEDDKHNNAKYAVSMARRIGARVYALPEDLVEVKPKMVMTVFACLMGRGMKRV | 4.22 | 0.59 | 0.47
4 | plastin 3 (PLS3) N446S (natural protein, plastin 3 (PLS3), human, osteogenesis imperfecta-linked missense mutation N446S in a proline-rich loop of CH3; Patient mutation; also called Ca2+-hypersensitive mutant; source: E. coli BL21-CodonPlus(DE3), purified (TALON cobalt resin)) MDEMATTQISKDELDELKEAFAKVDLNSNGFICDYELHELFKEANMPLPGYKVREIIQKLMLDGDRNKDGKISFDEFVYIFQEVKSSDIAKTFRKAINRKEGICALGGTSELSSEGTQHSYSEEEKYAFVNWINKALENDPDCRHVIPMNPNTDDLFKAVGDGIVLCKMINLSVPDTIDERAINKKKLTPFIIQENLNLALNSASAIGCHVVNIGAEDLRAGKPHLVLGLLWQIIKIGLFADIELSRNEALAALLRDGETLEELMKLSPEELLLRWANFHLENSGWQKINNFSADIKDSKAYFHLLNQIAPKGQKEGEPRIDINMSGFNETDDLKRAESMLQQADKLGCRQFVTPADVVSGNPKLNLAFVANLFNKYPALTKPENQDIDWTLLEGETREERTFRNWMNSLGVNPHVNHLYADLQDALVILQLYERIKVPVDWSKVSKPPYPKLGANMKKLENCNYAVELGKHPAKFSLVGIGGQDLNDGNQTLTLALVWQLMRRYTLNVLEDLGDGQKANDDIIVNWVNRTLSEAGKSTSIQSFKDKTISSSLAVVDLIDAIQPGCINYDLVKSGNLTEDDKHNNAKYAVSMARRIGARVYALPEDLVEVKPKMVMTVFACLMGRGMKRV | 4.79 | 6.36 | 0.58
5 | plastin 3 (PLS3) E249_A250insIMGHSHSGSCLL (natural protein, Patient mutation; also called E249_A250insI-L; Ca2+-insensitive mutant; source: E. coli BL21-CodonPlus(DE3), purified (TALON cobalt resin)) MDEMATTQISKDELDELKEAFAKVDLNSNGFICDYELHELFKEANMPLPGYKVREIIQKLMLDGDRNKDGKISFDEFVYIFQEVKSSDIAKTFRKAINRKEGICALGGTSELSSEGTQHSYSEEEKYAFVNWINKALENDPDCRHVIPMNPNTDDLFKAVGDGIVLCKMINLSVPDTIDERAINKKKLTPFIIQENLNLALNSASAIGCHVVNIGAEDLRAGKPHLVLGLLWQIIKIGLFADIELSRNEIMGHSHSGSCLLALAALLRDGETLEELMKLSPEELLLRWANFHLENSGWQKINNFSADIKDSKAYFHLLNQIAPKGQKEGEPRIDINMSGFNETDDLKRAESMLQQADKLGCRQFVTPADVVSGNPKLNLAFVANLFNKYPALTKPENQDIDWTLLEGETREERTFRNWMNSLGVNPHVNHLYADLQDALVILQLYERIKVPVDWSKVNKPPYPKLGANMKKLENCNYAVELGKHPAKFSLVGIGGQDLNDGNQTLTLALVWQLMRRYTLNVLEDLGDGQKANDDIIVNWVNRTLSEAGKSTSIQSFKDKTISSSLAVVDLIDAIQPGCINYDLVKSGNLTEDDKHNNAKYAVSMARRIGARVYALPEDLVEVKPKMVMTVFACLMGRGMKRV | 2.56 | 0.03 | 0.1
6 | plastin 3 (PLS3) A253_L254insN (natural protein, plastin 3 (PLS3), human, osteogenesis imperfecta-linked single-residue insertion A253_L254insN in the CH1-CH2 connecting loop of ABD1; Patient mutation; also called Ca2+-hypersensitive mutant; source: E. coli BL21-CodonPlus(DE3), purified (TALON cobalt resin)) MDEMATTQISKDELDELKEAFAKVDLNSNGFICDYELHELFKEANMPLPGYKVREIIQKLMLDGDRNKDGKISFDEFVYIFQEVKSSDIAKTFRKAINRKEGICALGGTSELSSEGTQHSYSEEEKYAFVNWINKALENDPDCRHVIPMNPNTDDLFKAVGDGIVLCKMINLSVPDTIDERAINKKKLTPFIIQENLNLALNSASAIGCHVVNIGAEDLRAGKPHLVLGLLWQIIKIGLFADIELSRNEALAANLLRDGETLEELMKLSPEELLLRWANFHLENSGWQKINNFSADIKDSKAYFHLLNQIAPKGQKEGEPRIDINMSGFNETDDLKRAESMLQQADKLGCRQFVTPADVVSGNPKLNLAFVANLFNKYPALTKPENQDIDWTLLEGETREERTFRNWMNSLGVNPHVNHLYADLQDALVILQLYERIKVPVDWSKVNKPPYPKLGANMKKLENCNYAVELGKHPAKFSLVGIGGQDLNDGNQTLTLALVWQLMRRYTLNVLEDLGDGQKANDDIIVNWVNRTLSEAGKSTSIQSFKDKTISSSLAVVDLIDAIQPGCINYDLVKSGNLTEDDKHNNAKYAVSMARRIGARVYALPEDLVEVKPKMVMTVFACLMGRGMKRV | 3.77 | 2.09 | 0.53
